The text below walks through data of patent publication US11311625B2, “Peptide-based multiple-drug delivery vehicle” (priority 2015, dated 2022).

The nature of data set [1]: Chemo-stability and drug release of conjugates 1a-e in buffers at pH 2, 5 and 7.4 (LC-MS). The format is physicochemical. Conditions: for half-life at 0.4 mg/ml: buffer. How it is done:
Incubation procedure: Aqueous stability was determined at pH 2.0 (phosphate buffer), 5.0 (citrate buffer) and 7.4 (PBS buffer). 100 μl of the stock solutions were diluted to 2.5 ml with the desired buffer and then incubated at 37° C. During the incubation period (up to 200 hrs.), aliquots were removed at different time intervals, filtered and analyzed by LC-MS.
Chemo-stability. The chemo-stability tests of the conjugates were performed at three different pH values; a physiological pH of 7.4, the slightly acidic pH 5, mimicking the microenvironment in tumors, and the more acidic pH 2.
FIGS. 11A-11J present the results of the chemo-stability and drug release profiles assays, conducted for conjugates 1a-e at pH 2, 5 and 7.4. Degradation of 1a (FIG. 11A), 1b (FIG. 11C), 1c (FIG. 11E), 1d (FIG. 11G), 1e FIG. 11 (FIG. 11I), and the release of the corresponding drugs: CLB (FIG. 11B), CPT (FIG. 11D), AM (FIG. 11F), ABT-751 (FIG. 11H), and COMB (FIG. 11J). Stock solutions were prepared by dissolving 5 mg of the measured conjugate in 0.5 ml DMSO. 100 μl of the stock solution were diluted to 2.5 ml with the relevant buffer and then incubated at 37° C. Along the incubation period, aliquots were taken at the desired time points and analyzed by LC-MS.

Data set [2] can be described thus: Bio-stability and drug release of conjugates 1a-e in murine liver homogenate (LH). Type of data set: in vitro ADME, mouse. The method, then:
Preparation of liver homogenate: Mice were sacrificed by CO2 inhalation euthanasia. The livers were removed, minced, washed three times in cold PBS buffer and homogenized in Tris-HCl buffer, pH 7.4 (wt/3 vol.) by dozen strokes in a Potter-Elvehjem glass tissue grinder. The tissue homogenate was centrifuged at 4° C., 14000 rpm, 20 min. The supernatant was carefully collected (liver homogenate) and used immediately or else stored in liquid nitrogen.
Incubation procedure: Incubations were conducted in a 37° C. incubator with 2 ml homogenate (equivalent to 6 mg total protein of mouse liver homogenate) per incubation tube. The samples were prepared by adding 50 μl of stock solution to the homogenate (homogenate mixture) at the beginning of the incubation period. Aliquots of the homogenate mixture were removed after 10, 30, 60, 90, 120 and 180 min and then immediately quenched with 2.5 volumes of ethanol. The samples were centrifuged at 14000 rpm for 15 min. Supernatants were collected, filtered and analyzed by LC-MS.
FIGS. 12A-12E present the results of the bio-stability and drug release profiles assays conducted for conjugates 1a-e in LH. […] Stock solutions were prepared by dissolving 5 mg of the measured conjugate in 0.5 ml DMSO. 50 μl of the stock solution were diluted with 2 ml of fresh mouse liver homogenate and then the mixture was incubated at 37° C. Aliquots were collected at 10, 30, 60, 90 and 120 min, mixed with 2.5 volumes of ethanol and centrifuged (14,000 rpm, 15 min). The supernatants were collected, filtered and analyzed by LC-MS

The subject of data set [3] is H1299 human non-small cell lung carcinoma cells. As to the kind of experiment: XTT growth inhibition assay, H1299. The format is cell-based. Conditions: 10 μM, incubation of 72 h. How it is done:
(§1) The cytotoxicity of the peptide-drug conjugates was determined by measuring the mitochondrial enzyme activity, using a commercial XTT assay kit. All samples contained DMSO at final concentration <0.05%. Cells were cultured in micro wells at 2-4×10^4 cells/ml and incubated for 24 h or 72 h. After the first incubation period the cultures were washed and then given fresh medium containing different concentrations of the tested substances. At the end of the second incubation, XTT reagent was added and the cells were re-incubated for additional 2-4 h. During that time the absorbencies in the wells were measured with a TECAN Infinite M200 plate reader at both 480 and 680 nm. The difference between these measurements was used for calculating the % Growth Inhibition (GI) in test wells compared to two controls: cells that were exposed to the medium and solvent, and those that were exposed to a solvent-free medium. All the tests were done in quadruplicates. Each experiment was conducted twice.
(§2) In order to compare the cytotoxic effects of the conjugates relative to the free drugs, the in vitro cytotoxic effect of the drug bioconjugates 1a-e was determined on SSTR2 overexpressed HCT 116 human colorectal carcinoma, H1299 human non-small cell lung carcinoma and TRAMP C2 human prostate cancer cell lines. The SSTR2 low-expressed HEK-293 (Human Embryonic Kidney 293) cell line was used as a negative control. The study was elaborated over a concentration range of 1-10 μM.
FIGS. 13A-13D present the results of the XTT growth inhibition assay conducted for conjugates 1a-e. […] After the treatment, growth inhibition was measured using the XTT assay: The culture medium was replaced by a new one, and then the XTT reagent was added. The wells were incubated for 2-4 hrs. after which the optical density (OD) was measured at 480 and 680 nm. Percentage of growth inhibition for each compound was calculated by comparison of the treated culture versus a control culture (free of any compound). The result shown for each concentration point represents the mean±standard error calculated from two different experiments. […]
(In general: Tetrazolium assays rely on reduction of a dye to a coloured formazan, in cell work by metabolically active cells.)

The subject of data set [4] is TRAMP C2 prostate cancer cell lines. Kind of data set: XTT growth inhibition assay, TRAMP C2. The format is cell-based, human. Conditions: compared with corresponding free drugs. The method, then:
as §1, with “The difference between these measurements was used for calculating the % Growth Inhibition (GI) in test wells compared to two controls: cells that were exposed to the medium and solvent, and those that were exposed to a solvent-free medium. All the tests were done in quadruplicates. Each experiment was conducted twice.” left out
In order to compare the cytotoxic effects of the conjugates relative to the free drugs, the in vitro cytotoxic effect of the drug bioconjugates 1a-e was determined on SSTR2 overexpressed HCT 116 human colorectal carcinoma, H1299 human non-small cell lung carcinoma and TRAMP C2 human prostate cancer cell lines. […]
FIGS. 13A-13D present the results of the XTT growth inhibition assay conducted for conjugates 1a-e. […] After the treatment, growth inhibition was measured using the XTT assay: The culture medium was replaced by a new one, and then the XTT reagent was added. The wells were incubated for 2-4 hrs. after which the optical density (OD) was measured at 480 and 680 nm. […]

The test system of data set [5] is HCT 116, H1299, TRAMP C2 and HEK cell lines. Kind of data set: XTT growth inhibition assay, statements over all tested cell lines. The format is cell-based, human. Conditions: 1-10 μM, 24 and 72 h. The method, then:
as §1, §2
FIGS. 13A-13D present the results of the XTT growth inhibition assay conducted for conjugates 1a-e. Growth inhibition effect of drug-conjugates versus free drugs was studied on three cell lines with an over-expression of SSTR2 (FIG. 13A. HCT 116; FIG. 13B. H1299; FIG. 13C. TRAMP C2) against the SSTR2 low expression cell line (FIG. 13D) HEK as negative control. All the cell lines were seeded and allowed to adhere in the wells, after which they were treated with the different compounds in increasing concentrations for 24 and 72 hr. After the treatment, growth inhibition was measured using the XTT assay: The culture medium was replaced by a new one, and then the XTT reagent was added. The wells were incubated for 2-4 hrs. after which the optical density (OD) was measured at 480 and 680 nm. Percentage of growth inhibition for each compound was calculated by comparison of the treated culture versus a control culture (free of any compound). The result shown for each concentration point represents the mean±standard error calculated from two different experiments. In each experiment the compounds were tested in quadruplicates.

Each structure is given as a SMILES string. Like-named read-outs stand apart in the source and are kept apart here.

In the case of `COc1ccc(S(=O)(=O)Nc2cccnc2Nc2ccc(OC(=O)NCCCC(=O)N[C@H](Cc3ccccc3)C(=O)N[C@H]3CSSCCN(CC(N)=O)C(=O)[C@H](Cc4ccccc4)NC(=O)[C@H]([C@@H](C)O)NC(=O)[C@H](CCCCN)NC(=O)[C@@H](Cc4c[nH]c5ccccc45)NC(=O)[C@H](Cc4c[nH]c5ccccc45)NC(=O)[C@H](Cc4ccccc4)NC3=O)cc2)cc1` [conjugate 1d], the degradation of conjugate entry in data set [1] (all tested pH values (pH 2, 5, 7.4), 37° C.) is listed as “rapid degradation”. The half-life at 0.4 mg/ml in data set [1] (all tested pH values, 37° C., read-out: average degradation t1/2 (converted)) was 480 min. Further, the “release of free drug in liver homogenate” value in data set [2] (37° C.) is given as “could hardly be detected”. The “cytotoxic effect on H1299” value in data set [3] was “most active”. Besides, in data set [4], the “cytotoxic effect on TRAMP C2” value was “most potent targeted therapeutic effect”. Also, the “cytotoxicity throughout the study” value in data set [5] is on record as “targeted but cell selective cytotoxicity”.

In the case of `COc1ccc(/C=C\c2cc(OC)c(OC)c(OC)c2)cc1OC(=O)NCCCC(=O)N[C@H](Cc1ccccc1)C(=O)N[C@H]1CSSCCN(CC(N)=O)C(=O)[C@H](Cc2ccccc2)NC(=O)[C@H]([C@@H](C)O)NC(=O)[C@H](CCCCN)NC(=O)[C@@H](Cc2c[nH]c3ccccc23)NC(=O)[C@H](Cc2c[nH]c3ccccc23)NC(=O)[C@H](Cc2ccccc2)NC1=O` [conjugate 1e], the “degradation of conjugate in acidic media” value in data set [1] (acidic media, especially pH 2) is “degrades rapidly”. The half-life at 0.4 mg/ml in data set [1] (pH 2, 37° C., read-out: degradation t1/2) is 4 min. Besides, the half-life at 0.244 mg/ml in data set [2] (mouse, tissue homogenate, pH 7.4, 37° C., read-out: degradation t1/2 in liver homogenate) is 26 min. Further, in data set [4], the “cytotoxic effect on TRAMP C2” value was “most potent targeted therapeutic effect”. Moreover, the “cytotoxicity throughout the study” value in data set [5] is given as “targeted but cell selective cytotoxicity”.
